Data from paper PMC11206218 (Science Advances, 2020).

Target: T1, S. cerevisiae Ggc1(C222S) with C-terminal His6-tag (S. cerevisiae, UniProt P38988 1-300, C222S)
T1 sequence (looked up): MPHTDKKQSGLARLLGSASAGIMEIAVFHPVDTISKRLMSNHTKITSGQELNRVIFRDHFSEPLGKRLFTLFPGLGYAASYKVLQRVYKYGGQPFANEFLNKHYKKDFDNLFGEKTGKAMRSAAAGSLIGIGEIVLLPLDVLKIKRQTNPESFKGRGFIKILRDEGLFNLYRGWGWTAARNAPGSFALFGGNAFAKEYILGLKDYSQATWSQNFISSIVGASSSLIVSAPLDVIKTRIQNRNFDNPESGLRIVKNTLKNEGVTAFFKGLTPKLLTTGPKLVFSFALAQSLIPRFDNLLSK
Experiment: pull-down

B1: TIM8·13(Tim8_(K30F,S36L)) mutant chaperone complex (complex, S. cerevisiae)
chain 1: MSSLSTSDLASLDDTSKKEIATFLEGENSFQKVQMLIHQFTNICFKKCVESVNDSNLSSQEEQCLSNCVNRFLDTNIRIVNGLQNTR
chain 2: GGLSSIFGGGAPSQQKEAATTAKTTPNPIAKELKNQIAQELAVANATELVNKISENCFEKCLTSPYATRNDACIDQCLAKYMRSWNVISKAYISRIQNASASGEI
- binding result: binds
